Assay results published in IntAct's records for PubMed 21078995.

B1: Nitrate/nitrite sensor protein NarX (Escherichia coli (strain K12)), P0AFA2 (parent)
chain: MLKRCLSPLTLVNQVALIVLLSTAIGLAGMAVSGWLVQGVQGSAHAINKAGSLRMQSYRLLAAVPLSEKDKPLIKEMEQTAFSAELTRAAERDGQLAQLQGLQDYWRNELIPALMRAQNRETVSADVSQFVAGLDQLVSGFDRTTEMRIETVVLVHRVMAVFMALLLVFTIIWLRARLLQPWRQLLAMASAVSHRDFTQRANISGRNEMAMLGTALNNMSAELAESYAVLEQRVQEKTAGLEHKNQILSFLWQANRRLHSRAPLCERLSPVLNGLQNLTLLRDIELRVYDTDDEENHQEFTCQPDMTCDDKGCQLCPRGVLPVGDRGTTLKWRLADSHTQYGILLATLPQGRHLSHDQQQLVDTLVEQLTATLALDRHQERQQQLIVMEERATIARELHDSIAQSLSCMKMQVSCLQMQGDALPESSRELLSQIRNELNASWAQLRELLTTFRLQLTEPGLRPALEASCEEYSAKFGFPVKLDYQLPPRLVPSHQAIHLLQIAREALSNALKHSQASEVVVTVAQNDNQVKLTVQDNGCGVPENAIRSNHYGMIIMRDRAQSLRGDCRVRRRESGGTEVVVTFIPEKTFTDVQGDTHE

Variants of: B1
Settings: with narl_ecoli narL

Row | Variant | effect of a mutation on the interaction
1 | MLKRCLSPLTLVNQVALIVLLSTAIGLAGMAVSGWLVQGVQGSAHAINKAGSLRMQSYRLLAAVPLSEKDKPLIKEMEQTAFSAELTRAAERDGQLAQLQGLQDYWRNELIPALMRAQNRETVSADVSQFVAGLDQLVSGFDRTTEMRIETVVLVHRVMAVFMALLLVFTIIWLRARLLQPWRQLLAMASAVSHRDFTQRANISGRNEMAMLGTALNNMSAELAESYAVLEQRVQEKTAGLEHKNQILSFLWQANRRLHSRAPLCERLSPVLNGLQNLTLLRDIELRVYDTDDEENHQEFTCQPDMTCDDKGCQLCPRGVLPVGDRGTTLKWRLADSHTQYGILLATLPQGRHLSHDQQQLVDTLVEQLTATLALDRHQERQQQLIVMEERATIARELQDSIAQSLSCMKMQVSCLQMQGDALPESSRELLSQIRNELNASWAQLRELLTTFRLQLTEPGLRPALEASCEEYSAKFGFPVKLDYQLPPRLVPSHQAIHLLQIAREALSNALKHSQASEVVVTVAQNDNQVKLTVQDNGCGVPENAIRSNHYGMIIMRDRAQSLRGDCRVRRRESGGTEVVVTFIPEKTFTDVQGDTHE [H399Q] | decreasing interaction
2 | MLKRCLSPLTLVNQVALIVLLSTAIGLAGMAVSGWLVQGVQGSAHAINKAGSLRMQSYRLLAAVPLSEKDKPLIKEMEQTAFSAELTRAAERDGQLAQLQGLQDYWRNELIPALMRAQNRETVSADVSQFVAGLDQLVSGFDRTTEMRIETVVLVHRVMAVFMALLLVFTIIWLRARLLQPWRQLLAMASAVSHRDFTQRANISGRNEMAMLGTALNNMSAELAESYAVLEQRVQEKTAGLEHKNQILSFLWQANRRLHSRAPLCERLSPVLNGLQNLTLLRDIELRVYDTDDEENHQEFTCQPDMTCDDKGCQLCPRGVLPVGDRGTTLKWRLADSHTQYGILLATLPQGRHLSHDQQQLVDTLVEQLTATLALDRHQERQQQLIVMEERATIARELQDSIAASLSCMKMQVSCLQMQGDALPESSRELLSQIRNELNASWAQLRELLTTFRLQLTEPGLRPALEASCEEYSAKFGFPVKLDYQLPPRLVPSHQAIHLLQIAREALSNALKHSQASEVVVTVAQNDNQVKLTVQDNGCGVPENAIRSNHYGMIIMRDRAQSLRGDCRVRRRESGGTEVVVTFIPEKTFTDVQGDTHE [H399Q;Q404A] | disrupting interaction
3 | MLKRCLSPLTLVNQVALIVLLSTAIGLAGMAVSGWLVQGVQGSAHAINKAGSLRMQSYRLLAAVPLSEKDKPLIKEMEQTAFSAELTRAAERDGQLAQLQGLQDYWRNELIPALMRAQNRETVSADVSQFVAGLDQLVSGFDRTTEMRIETVVLVHRVMAVFMALLLVFTIIWLRARLLQPWRQLLAMASAVSHRDFTQRANISGRNEMAMLGTALNNMSAELAESYAVLEQRVQEKTAGLEHKNQILSFLWQANRRLHSRAPLCERLSPVLNGLQNLTLLRDIELRVYDTDDEENHQEFTCQPDMTCDDKGCQLCPRGVLPVGDRGTTLKWRLADSHTQYGILLATLPQGRHLSHDQQQLVDTLVEQLTATLALDRHQERQQQLIVMEERATIARELQDSIAHSLSCMKMQVSCLQMQGDALPESSRELLSQIRNELNASWAQLRELLTTFRLQLTEPGLRPALEASCEEYSAKFGFPVKLDYQLPPRLVPSHQAIHLLQIAREALSNALKHSQASEVVVTVAQNDNQVKLTVQDNGCGVPENAIRSNHYGMIIMRDRAQSLRGDCRVRRRESGGTEVVVTFIPEKTFTDVQGDTHE [H399Q;Q404H] | disrupting interaction
4 | MLKRCLSPLTLVNQVALIVLLSTAIGLAGMAVSGWLVQGVQGSAHAINKAGSLRMQSYRLLAAVPLSEKDKPLIKEMEQTAFSAELTRAAERDGQLAQLQGLQDYWRNELIPALMRAQNRETVSADVSQFVAGLDQLVSGFDRTTEMRIETVVLVHRVMAVFMALLLVFTIIWLRARLLQPWRQLLAMASAVSHRDFTQRANISGRNEMAMLGTALNNMSAELAESYAVLEQRVQEKTAGLEHKNQILSFLWQANRRLHSRAPLCERLSPVLNGLQNLTLLRDIELRVYDTDDEENHQEFTCQPDMTCDDKGCQLCPRGVLPVGDRGTTLKWRLADSHTQYGILLATLPQGRHLSHDQQQLVDTLVEQLTATLALDRHQERQQQLIVMEERATIARELQASIAQSLSCMKMQVSCLQMQGDALPESSRELLSQIRNELNASWAQLRELLTTFRLQLTEPGLRPALEASCEEYSAKFGFPVKLDYQLPPRLVPSHQAIHLLQIAREALSNALKHSQASEVVVTVAQNDNQVKLTVQDNGCGVPENAIRSNHYGMIIMRDRAQSLRGDCRVRRRESGGTEVVVTFIPEKTFTDVQGDTHE [H399Q;D400A] | decreasing interaction
